Measured values taken from patent US20260027152A1 (SANGAMO THERAPEUTICS, published 2026).

T1: mouse IL23Ra (coated on beads) (mouse, UniProt Q8K4B4 24-372, limits assumed)
T1 construct: also called mouse IL-23R alpha subunit
T1 sequence (looked up): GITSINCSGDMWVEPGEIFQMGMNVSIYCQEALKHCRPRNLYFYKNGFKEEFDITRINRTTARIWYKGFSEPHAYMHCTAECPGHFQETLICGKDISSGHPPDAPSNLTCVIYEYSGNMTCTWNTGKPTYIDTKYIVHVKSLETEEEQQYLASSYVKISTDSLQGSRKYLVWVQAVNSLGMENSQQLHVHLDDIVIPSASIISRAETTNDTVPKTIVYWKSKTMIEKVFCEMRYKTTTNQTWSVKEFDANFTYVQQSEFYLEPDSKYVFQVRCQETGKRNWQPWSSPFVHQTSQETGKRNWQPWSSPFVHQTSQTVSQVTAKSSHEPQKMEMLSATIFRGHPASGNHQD

T2: human IL23Ra (coated on beads) (human, UniProt Q5VWK5 24-353, limits assumed)
T2 construct: also called human IL-23R alpha subunit
T2 sequence (looked up): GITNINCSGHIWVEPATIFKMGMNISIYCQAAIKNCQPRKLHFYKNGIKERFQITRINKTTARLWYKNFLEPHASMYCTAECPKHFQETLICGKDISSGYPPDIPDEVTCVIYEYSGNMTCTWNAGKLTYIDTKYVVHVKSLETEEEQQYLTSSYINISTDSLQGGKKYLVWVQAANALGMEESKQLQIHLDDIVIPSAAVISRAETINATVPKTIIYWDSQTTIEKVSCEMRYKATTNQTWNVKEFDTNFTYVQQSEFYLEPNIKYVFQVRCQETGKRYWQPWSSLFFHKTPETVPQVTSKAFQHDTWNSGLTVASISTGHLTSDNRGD


Tests used:
[1] = biological target: T1, mouse IL23Ra (coated on beads); experiment: flow cytometry; biotinylated scFv on mouse IL23Ra-coated beads, detected with APC-streptavidin, EC50 from median fluorescence intensity
Protocol: (§1) The indicated scFVs were produced in mammalian 293tcells, purified and biotinylated. Biotinylated scFvs were then incubated at 25° C. with mouse or human IL23Ra-coated beads for 30 min in PBS. After cold washing, bound IL23R bound scFV was detected by incubation with APC-labelled Streptavidin and analysis of the samples on a Flow-cytometer. An EC50 was calculated based on the median fluorescence intensity from each condition. Calculation, curve fitting and EC50 calculation was performed via Graphpad Prism.

[2] = biological target: T1, mouse IL23Ra (coated on beads); experiment: ratio of the EC50 values on mouse and human IL23Ra-coated beads (flow cytometry)
Protocol: as §1

[3] = biological target: T2, human IL23Ra (coated on beads); experiment: flow cytometry; biotinylated scFv on human IL23Ra-coated beads, detected with APC-streptavidin, EC50 from median fluorescence intensity
Protocol: as §1

[4] = biological target: IL-23R (coated on beads, Example 1); experiment: cell-based or functional assay
IL-23R (coated on beads, Example 1), sequence (Q5VWK5 whole entry): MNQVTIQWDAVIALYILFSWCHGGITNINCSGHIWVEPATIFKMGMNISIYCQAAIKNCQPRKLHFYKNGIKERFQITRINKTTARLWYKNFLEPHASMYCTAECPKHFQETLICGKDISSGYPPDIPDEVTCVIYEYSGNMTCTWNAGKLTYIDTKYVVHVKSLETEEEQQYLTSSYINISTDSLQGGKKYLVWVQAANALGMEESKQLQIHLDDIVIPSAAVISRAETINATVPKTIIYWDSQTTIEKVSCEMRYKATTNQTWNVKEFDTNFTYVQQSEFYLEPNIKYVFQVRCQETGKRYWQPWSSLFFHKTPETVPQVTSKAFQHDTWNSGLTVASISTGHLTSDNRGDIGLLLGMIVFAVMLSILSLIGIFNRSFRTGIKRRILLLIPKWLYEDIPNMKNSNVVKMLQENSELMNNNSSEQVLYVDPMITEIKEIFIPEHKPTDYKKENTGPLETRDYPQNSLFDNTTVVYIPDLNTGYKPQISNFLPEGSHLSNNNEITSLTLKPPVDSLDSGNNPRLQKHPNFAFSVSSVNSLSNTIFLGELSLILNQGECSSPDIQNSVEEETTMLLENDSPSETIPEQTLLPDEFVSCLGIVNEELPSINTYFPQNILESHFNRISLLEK

| EC50 [1] [nM] | fold difference in binding affinity between human IL23R and mouse IL23R [2] [fold] | EC50 [3] [nM] | CD69+ cells (CAR-Treg activation) after 24 h with IL-23R coated beads, fold increase [4] [fold] | Binder |
| --- | --- | --- | --- | --- |
| 53.1 | ~1.4 | 37.6 |  | anti-IL-23R scFv IL23RLamS4-G3 (scFv, biotinylated (sites not given), also called hmIL23R LamS4-G3; scFv of the present disclosure) scFv: QSVLTQPPSVSGAPGQRVTISCTGSSSNIGAGYDVHWYQQLPGTAPKLLIYGNNNRPSGVPDRFSGSKSGTSASLAITGLQAEDEADYYCQSYDTGLSAWVFGGGTKLTVLGGGGSGGGGSGGGGSQLQLQESGPGLVKPSETLSLTCTVSGGSITSSNYYWGWIRQPPGKGLEWIGSIYYSGNTYYNPSLKSRVTISVDTSKNQFSLKLSSVTAADTAVYYCAREWSPYESEGFDYWGQGTLVTVSS |
|  |  |  | 3.6 | CAR #2 (anti-IL-23R chimeric antigen receptor with scFv IL23RLamS4-G3, CD8 hinge, CD8 TM, CD28, CD3 zeta) (other) SYPYDVPDYASQSVLTQPPSVSGAPGQRVTISCTGSSSNIGAGYDVHWYQQLPGTAPKLLIYGNNNRPSGVPDRFSGSKSGTSASLAITGLQAEDEADYYCQSYDTGLSAWVFGGGTKLTVLGGGGSGGGGSGGGGSQLQLQESGPGLVKPSETLSLTCTVSGGSITSSNYYWGWIRQPPGKGLEWIGSIYYSGNTYYNPSLKSRVTISVDTSKNQFSLKLSSVTAADTAVYYCAREWSPYESEGFDYWGQGTLVTVSSTTTPAPRPPTPAPTIASQPLSLRPEACRPAAGGAVHTRGLDFACDIYIWAPLAGTCGVLLLSLVITLYCRSKRSRLLHSDYMNMTPRRPGPTRKHYQPYAPPRDFAAYRSRVKFSRSADAPAYQQGQNQLYNELNLGRREEYDVLDKRRGRDPEMGGKPRRKNPQEGLYNELQKDKMAEAYSEIGMKGERRRGKGHDGLYQGLSTATKDTYDALHMQALPPR |
